One block for each molecule: values may come before it. Positions of bridges follow the written chain, without caps; N, C: chain ends. Non-standard residues stand in square brackets, D forms with d. No end group written: not given here. Hyp = O=C(O)[C@@H]1C[C@@H](O)CN1; cY = chlorotyrosine; Ahx = NCCCCCC(=O)O
Tests used:
MDA-MB-435 tumors [1] = experiment: Small molecule vascular disrupting agents: induction of coagulation in tumors (fibrinogen/albumin tropism); format: in vivo, mice; conditions: i.p. DMXAA 20 mg/kg or colchicine 1 mg/kg; 24 hours
Description: Mice bearing MDA-MB-435 tumors were intravenously injected with a mixture of fibrinogen and albumin that had been labeled with unique near-infrared fluorophores (VT750 and VT680, respectively). Immediately after injection, mice were intraperitoneally injected with DMXAA (20 mg/kg) in 200 microliters of sodium bicarbonate buffer or vehicle. At 24 hours after injections, mice were sacrificed and organs removed for fluorescent quantification of protein tropism to tumors (* indicates p=0.014; n=6). […] Mice bearing bilateral MDA-MB-435 tumors were intravenously injected with a mixture of fibrinogen and albumin that had been labeled with unique near-infrared fluorophores (VT750 and VT680, respectively). […] At 24 hours after injections, mice were sacrificed and organs removed for fluorescent quantification of protein tropism to tumors.

ICAM-1 = experiment: Induction of ICAM-1 expression in HUVECs (immuno-staining); format: cell-based, Human; conditions: 10 ng/ml overnight
Description: This example illustrates the induction of ICAM-1 expression in HUVECs. […] Human Umbilical Vein Endothelial Cells (HUVECs) were cultured on slides coated with gelatin in Medium 200 supplemented with LSGS (Cascade Biologics/Invitrogen). One day after plating, cells were treated with 10 ng/ml TNF-alpha or vehicle alone overnight. The next day cells were fixed and immuno-stained for ICAM-1 expression (antibody from Cell Signaling).

MDA-MB-435 tumors [2] = experiment: Integrated PEG-NR signaling / FXIII-NW receiver communication, NIR fluorescence imaging; format: in vivo, mice; conditions: PEG-NRs 10 mg Au/kg, 72 h later NWs i.v. + 810 nm ~0.75 W/cm^2 20 min; imaging at 96 hours
Description: (§1) Quantifying NW homing to tumors: Mixtures of NIR-fluorophore-labeled, targeted and control NWs (bearing VT750 and VT680 or VT680 and VT750, respectively) were co-adminstered intravenously in PBS (2 mg Fe/kg) to tumor-bearing nu/nu mice to provide an internal control reference for coagulation-specific NW homing. At 24 hours post-NW injection, mice were sacrificed and organs were analyzed for both NIR-fluorophores (LI-COR Odyssey Infrared Imaging System). For integrated nanoparticle system characterization, mice were additionally imaged under isofluorane anaesthetic before euthanization using a whole animal fluorescence reflectance imaging system (Xenogen, IVIS Imaging System) to visualize the specificity of NW homing to tumors. […] For initial characterization, levels of targeted and control NW homing were plotted by comparing the average NW fluorescence in heated tumors versus unheated tumors (n=4 mice at each temperature). For integrated network evaluation, levels were plotted by comparing the average targeted and untargeted NW fluorescence in irradiated tumors versus un-irradiated tumors (n=4 mice for all conditions).
PEG-NRs (or saline) were intravenously-injected into mice bearing bilateral MDA-MB-435 tumors. […]

MDA-MB-435 tumors [3] = experiment: Nanoworm receiver homing to externally heated tumors; format: in vivo, mice; conditions: 24 hours
Description: as §1
Having observed that external heating of tumors produced localized coagulation, this response was utilized in an assay to assess the ability of receivers to target tumor coagulation prior to integrating them with signaling components. […]

MDA-MB-435 tumor = experiment: Autonomous communication between tTF signaling components and FXIII-NW receivers; format: in vivo, mice; conditions: tTF-RGD+FXIII-NWs plus heparin 800 units/kg i.v. + 500 units/kg i.p.
Description: For autonomously-communicating nanosystems, NIR-fluorophore-labeled peptide-bearing NWs (bearing VT750 fluorophores) were intravenously (2 mg Fe/kg) in PBS to unanaesthetized MDA-MB-435 tumor-bearing nu/nu mice alone or alongside various tTF signaling components (25 micrograms). At 24 hours post-NW injection, the mice were sacrificed and organs were analyzed for NIR receiver fluorescence (LI-COR Odyssey Infrared Imaging System). For intraoperative fluorescent tumor imaging, mice were anaesthesized and tumours were surgically exposed to reveal detailed tumor fluorescence (LI-COR). The levels of NW homing to tumors were plotted by comparing the average NW fluorescence in fully-excised tumours (n=4 mice at each condition). For whole animal organ distribution, tTF-RGD signaling components were administered intraperitoneally (25 micrograms) and FXIII-NWs were administered intravenously (2 mg Fe/kg) to unanaesthetized mice bearing an MDA-MB-435 tumor.
Nu/nu mice bearing a single MDA-MB-435 tumor were intravenously injected with communicating (tTF-RGD+FXIII-NWs) or control (tTF-RGD+control-NWs) systems, FXIII-NWs alone, or NWs targeted by the peptide used to direct signaling component tumor homing (1 mg/kg tTF-RGD). At 24 hours post-injection, tumors were surgically exposed for fluorescent intraoperative imaging of NW homing. […]

[4] = biological target: T1, coagulation transglutaminase Factor XIII (mouse, UniProt Q8BH61 39-732); experiment: cell-based or functional assay
T1 sequence (looked up): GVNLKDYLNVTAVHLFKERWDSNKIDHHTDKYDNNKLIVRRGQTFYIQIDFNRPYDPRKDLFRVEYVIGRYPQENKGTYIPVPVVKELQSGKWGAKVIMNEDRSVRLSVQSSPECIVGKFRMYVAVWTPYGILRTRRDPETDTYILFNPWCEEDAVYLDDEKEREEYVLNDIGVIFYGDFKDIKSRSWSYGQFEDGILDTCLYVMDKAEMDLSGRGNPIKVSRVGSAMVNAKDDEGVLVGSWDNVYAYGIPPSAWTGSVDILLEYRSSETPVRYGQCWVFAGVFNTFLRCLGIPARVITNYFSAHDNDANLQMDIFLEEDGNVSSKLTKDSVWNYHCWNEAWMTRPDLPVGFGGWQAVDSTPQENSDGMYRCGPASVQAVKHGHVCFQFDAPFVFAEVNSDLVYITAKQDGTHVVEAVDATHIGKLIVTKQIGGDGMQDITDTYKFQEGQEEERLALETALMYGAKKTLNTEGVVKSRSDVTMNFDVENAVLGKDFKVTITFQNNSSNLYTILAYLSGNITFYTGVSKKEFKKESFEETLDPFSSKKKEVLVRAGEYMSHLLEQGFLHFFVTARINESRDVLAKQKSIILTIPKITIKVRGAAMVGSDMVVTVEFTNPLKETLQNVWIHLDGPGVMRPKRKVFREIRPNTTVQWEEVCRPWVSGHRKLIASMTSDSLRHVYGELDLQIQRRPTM

[5] = biological target: fibrin (polymerized fibrin deposited in heated tumors of mice) (mouse, UniProt E9PV24 37-789; Q8K0E8 35-481; Q8VCM7 26-436, limits assumed); experiment: cell-based or functional assay
fibrin (polymerized fibrin deposited in heated tumors of mice), sequence (E9PV24 37-789 limits assumed, chain 1 of 3): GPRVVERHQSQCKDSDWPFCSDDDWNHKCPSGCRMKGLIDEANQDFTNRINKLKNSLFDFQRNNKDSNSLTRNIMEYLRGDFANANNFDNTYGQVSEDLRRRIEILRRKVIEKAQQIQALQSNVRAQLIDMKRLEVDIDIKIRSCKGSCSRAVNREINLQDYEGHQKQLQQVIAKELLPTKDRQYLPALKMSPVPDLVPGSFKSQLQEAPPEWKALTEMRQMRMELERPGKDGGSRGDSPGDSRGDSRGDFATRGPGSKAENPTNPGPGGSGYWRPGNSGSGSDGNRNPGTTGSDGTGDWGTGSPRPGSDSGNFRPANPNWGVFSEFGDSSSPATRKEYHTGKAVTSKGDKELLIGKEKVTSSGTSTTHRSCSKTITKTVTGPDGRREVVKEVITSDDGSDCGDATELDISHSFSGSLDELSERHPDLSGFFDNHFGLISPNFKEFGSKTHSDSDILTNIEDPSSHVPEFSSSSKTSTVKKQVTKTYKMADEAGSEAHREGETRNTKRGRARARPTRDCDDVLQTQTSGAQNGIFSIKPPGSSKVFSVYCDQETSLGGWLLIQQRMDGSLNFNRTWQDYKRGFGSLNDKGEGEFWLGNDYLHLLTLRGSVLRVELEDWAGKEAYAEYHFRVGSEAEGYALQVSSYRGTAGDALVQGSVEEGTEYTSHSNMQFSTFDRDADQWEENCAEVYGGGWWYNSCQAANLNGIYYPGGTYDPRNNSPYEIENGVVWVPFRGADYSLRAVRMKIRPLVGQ
fibrin (polymerized fibrin deposited in heated tumors of mice), sequence (Q8K0E8 35-481 limits assumed, chain 2 of 3): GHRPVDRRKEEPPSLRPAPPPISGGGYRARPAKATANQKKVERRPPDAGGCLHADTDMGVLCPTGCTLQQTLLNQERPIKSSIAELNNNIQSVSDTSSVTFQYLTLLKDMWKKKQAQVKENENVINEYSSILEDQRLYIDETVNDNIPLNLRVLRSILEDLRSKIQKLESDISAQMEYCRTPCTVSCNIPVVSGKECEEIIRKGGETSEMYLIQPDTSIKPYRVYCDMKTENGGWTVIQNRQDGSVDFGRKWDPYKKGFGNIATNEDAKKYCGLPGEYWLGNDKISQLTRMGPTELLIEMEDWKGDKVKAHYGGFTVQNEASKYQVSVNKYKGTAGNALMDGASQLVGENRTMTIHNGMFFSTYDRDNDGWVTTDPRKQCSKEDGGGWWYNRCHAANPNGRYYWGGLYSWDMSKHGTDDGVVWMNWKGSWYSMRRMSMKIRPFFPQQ
fibrin (polymerized fibrin deposited in heated tumors of mice), sequence (Q8VCM7 26-436 limits assumed, chain 3 of 3): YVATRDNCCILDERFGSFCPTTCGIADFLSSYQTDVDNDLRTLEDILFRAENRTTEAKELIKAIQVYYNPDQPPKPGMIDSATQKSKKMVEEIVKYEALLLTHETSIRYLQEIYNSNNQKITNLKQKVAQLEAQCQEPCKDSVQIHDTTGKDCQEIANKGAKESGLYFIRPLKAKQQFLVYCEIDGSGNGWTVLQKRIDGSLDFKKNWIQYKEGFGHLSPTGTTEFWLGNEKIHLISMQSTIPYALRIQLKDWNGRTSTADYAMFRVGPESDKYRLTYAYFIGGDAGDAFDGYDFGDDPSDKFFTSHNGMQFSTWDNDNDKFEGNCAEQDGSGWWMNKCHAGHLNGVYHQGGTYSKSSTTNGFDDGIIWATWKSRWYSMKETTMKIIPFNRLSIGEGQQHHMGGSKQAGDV

Molecule: Cc1ccc2c(=O)c3cccc(CC(=O)O)c3oc2c1C [DMXAA, 5,6-dimethylxanthenone-4-acetic acid]
- induction of coagulation in tumors (MDA-MB-435 tumors [1]): specifically induced coagulation in tumors

Molecule: TNF-alpha
- ICAM-1 expression on the cell surface (ICAM-1): upregulation of ICAM-1 on the cell surface

Molecule: FXIII-NWs: magnetofluorescent iron oxide nanoworms derivatized with a peptide substrate for coagulation transglutaminase Factor XIII (SEQ ID NO: 2) (GNQEQVSPLTLLK[Ahx]CK-Fluorescein; not fully specified (residue 15))
- increase in accumulation in NR-heated tumors above unirradiated contralateral tumors and tumors on saline-injected mice (MDA-MB-435 tumors [2]): over an order of magnitude
- histopathological distribution in heated tumors compared with controls (MDA-MB-435 tumors [3]; heated tumors): marked extravasation and interstitial spreading
- increase in tumor targeting, heated compared to unheated tumors (MDA-MB-435 tumors [3]; one tumor heated at 45° C. in water bath 20 min): nearly an order of magnitude

Molecule: heparin
- amplified vascular targeting when coagulation inhibitor administered alongside the integrated system (MDA-MB-435 tumor): absent

- accumulation of FXIII-substrate receiving NWs in tumors heated to 45 C against unheated tumors (in vivo, NIR fluorescence at 24 hours) [4]: ~10 fold
- accumulation of FXIII-targeted NWs in nanorod-heated tumors against unirradiated contralateral tumors and tumors on saline-injected mice (in vivo, whole-animal fluorescence) [4]: > 10 fold
- doxorubicin accumulation in tumors heated to 45 C against unheated controls, FXIII-substrate liposomes (in vivo) [4]: > 40 fold
- doxorubicin accumulation in tumors, NR signaling components plus FXIII-LP receivers against the LPs alone (in vivo) [4]: > 40 fold
B1: peptide substrate for the transglutaminase Factor XIII, G-N-Q-E-Q-V-S-P-L-T-L-L-K-X-C-(K-Fluorescein) (peptide)
peptide: GNQEQVSPLTLLK[Ahx]CK-Fluorescein
modifications: also: coupled through the exogenous Cys to nanoworm or liposome carrier

- targeting of fibrin-binding receiving NWs to heated tumors against unheated tumors (in vivo, NIR fluorescence) [5]: ~10 fold
B2: fibrin-binding peptide Ac-d-d-d-G-Y-e-C-hyP-cY-G-L-C-Y-I-Q-K-Fluorescein (peptide)
peptide: Ac-[dD][dD][dD]GY[dE]C[Hyp][cY]GLCYIQK-Fluorescein
modifications: disulfide 7-12 (inferred); not fully specified; printed as Ac-d-d-d-G-Y-e-C-hyP-cY-G-L-C-Y-I-Q-K-Fluorescein; also: attached to nanoworm via the Lys with NHS-PEO5-NHS linker
